Reference: PMC9859756, “OASL phase condensation induces amyloid-like fibrillation of RIPK3 to promote virus-induced necroptosis” (Nature Cell Biology, 2023)

B1: BFP C-terminal fused full-length human ZBP1 (natural protein, UniProt Q9H171 1-429, looked up)
chain: MAQAPADPGREGHLEQRILQVLTEAGSPVKLAQLVKECQAPKRELNQVLYRMKKELKVSLTSPATWCLGGTDPEGEGPAELALSSPAERPQQHAATIPETPGPQFSQQREEDIYRFLKDNGPQRALVIAQALGMRTAKDVNRDLYRMKSRHLLDMDEQSKAWTIYRPEDSGRRAKSASIIYQHNPINMICQNGPNSWISIANSEAIQIGHGNIITRQTVSREDGSAGPRHLPSMAPGDSSTWGTLVDPWGPQDIHMEQSILRRVQLGHSNEMRLHGVPSEGPAHIPPGSPPVSATAAGPEASFEARIPSPGTHPEGEAAQRIHMKSCFLEDATIGNSNKMSISPGVAGPGGVAGSGEGEPGEDAGRRPADTQSRSHFPRDIGQPITPSHSKLTPKLETMTLGNRSHKAAEGSHYVDEASHEGSWWGGGI
notes: also called ZBP1–BFP; not shown: BFP, C-terminal, kept
B2: mCherry C-terminal fused C-terminal unstructured region of human RIPK3 (RIPK3 295–518) (domain or fragment, UniProt Q9Y572 295-518, looked up)
chain: NAAVSTVKDFLSQLRSSNRRFSIPESGQGGTEMDGFRRTIENQHSRNDVMVSEWLNKLNLEEPPSSVPKKCPSLTKRSRAQEEQVPQAWTAGTSSDSMAQPPQTPETSTFRNQMPSPTSTGTPSPGPRGNQGAERQGMNWSCRTPEPNPVTGRPLVNIYNCSGVQVGDNNYLTMQQTTALPTWGLAPSGKGRGLQHPPPVGSQEGPKDPEAWSRPQGWYNHSGK
notes: also called RIPK3_(295–518)–mCherry; C-terminal RIPK3_(295–518); source: E. coli BL21 DE3 (pLys), purified (glutathione sepharose 4B, GST removed with PreScission protease); not shown: mCherry, C-terminal, kept
B3: purified untagged full-length OASL (natural protein, human, UniProt Q15646 1-514, looked up)
chain: MALMQELYSTPASRLDSFVAQWLQPHREWKEEVLDAVRTVEEFLRQEHFQGKRGLDQDVRVLKVVKVGSFGNGTVLRSTREVELVAFLSCFHSFQEAAKHHKDVLRLIWKTMWQSQDLLDLGLEDLRMEQRVPDALVFTIQTRGTAEPITVTIVPAYRALGPSLPNSQPPPEVYVSLIKACGGPGNFCPSFSELQRNFVKHRPTKLKSLLRLVKHWYQQYVKARSPRANLPPLYALELLTIYAWEMGTEEDENFMLDEGFTTVMDLLLEYEVICIYWTKYYTLHNAIIEDCVRKQLKKERPIILDPADPTLNVAEGYRWDIVAQRASQCLKQDCCYDNRENPISSWNVKRARDIHLTVEQRGYPDFNLIVNPYEPIRKVKEKIRRTRGYSGLQRLSFQVPGSERQLLSSRCSLAKYGIFSHTHIYLLETIPSEIQVFVKNPDGGSYAYAINPNSFILGLKQQIEDQQGLPKKQQQLEFQGQVLQDWLGLGIYGIQDSDTLILSKKKGEALFPAS
notes: also called purified human OASL protein; source: purified

Assays:
[1] = molecular target: T1, eGFP C-terminal fused full-length human OASL (human, UniProt Q15646 1-514); experiment: in vitro recruitment into phase-separated droplets (fluorescence microscopy); conditions: both partners purified
T1 construct: also called OASL–GFP; GFP-tagged full-length OASL; source: E. coli BL21 DE3 (pLys), purified (glutathione sepharose 4B, GST removed with PreScission protease); not shown: eGFP, C-terminal, kept
T1 sequence (looked up): B3 chain

[2] = molecular target: T2, mCherry C-terminal fused full-length human RIPK3 (human, UniProt Q9Y572 1-518); experiment: as above; conditions: both partners purified
T2 construct: also called RIPK3–mCherry; mCherry-tagged full-length RIPK3; source: E. coli BL21 DE3 (pLys), purified (glutathione sepharose 4B, GST removed with PreScission protease); not shown: mCherry, C-terminal, kept

Row | Binder | binding result [1] | binding result [2]
1 | B1 | binds | 
2 | B2 | binds | 
3 | B3 |  | binds
